Results: patent US20210324058A1 (BRIGHAM AND WOMEN S HOSPITAL, published 2021)

Key:
[1] = target: T1, recombinant human NEDD9 (neural precursor cell expressed, developmentally down-regulated 9), OriGene TP307200 (human, UniProt Q14511 1-834); assay: microscale thermophoresis, labelled NEDD9 20 nM, P-Selectin titrated
T1 construct: Bought recombinant protein; In microscale thermophoresis it was labelled with the dye NT-647-NHS; also called recombinant NEDD9; purified human NEDD9
T1 sequence (looked up): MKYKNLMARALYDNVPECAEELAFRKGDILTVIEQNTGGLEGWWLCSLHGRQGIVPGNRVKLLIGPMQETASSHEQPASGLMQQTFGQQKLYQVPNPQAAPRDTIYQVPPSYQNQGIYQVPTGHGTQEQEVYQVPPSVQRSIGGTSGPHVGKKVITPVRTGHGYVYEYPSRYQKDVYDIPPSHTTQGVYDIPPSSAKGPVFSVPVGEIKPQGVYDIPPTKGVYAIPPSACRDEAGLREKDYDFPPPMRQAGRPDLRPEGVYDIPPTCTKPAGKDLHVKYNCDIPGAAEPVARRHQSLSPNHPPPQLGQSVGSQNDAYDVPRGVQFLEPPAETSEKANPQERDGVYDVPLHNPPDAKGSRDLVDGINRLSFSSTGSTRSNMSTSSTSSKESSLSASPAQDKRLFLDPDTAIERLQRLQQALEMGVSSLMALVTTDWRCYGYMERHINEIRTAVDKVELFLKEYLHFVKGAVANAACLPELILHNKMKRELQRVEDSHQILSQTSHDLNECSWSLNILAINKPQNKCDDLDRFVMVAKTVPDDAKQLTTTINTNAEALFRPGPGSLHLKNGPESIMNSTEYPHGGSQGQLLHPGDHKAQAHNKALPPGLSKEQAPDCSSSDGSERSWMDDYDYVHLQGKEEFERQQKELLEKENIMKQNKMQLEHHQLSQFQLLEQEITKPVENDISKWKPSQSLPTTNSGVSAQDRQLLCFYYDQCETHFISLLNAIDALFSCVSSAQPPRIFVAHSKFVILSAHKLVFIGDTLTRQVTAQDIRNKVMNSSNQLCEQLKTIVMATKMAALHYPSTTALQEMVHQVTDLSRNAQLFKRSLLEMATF
Description: (§1) FIGS. 4A-E. P-Selectin binds the NEDD9 substrate domain. (A) HPAEC plasma membrane fractions were incubated with recombinant P-Selectin (0.5-1.0 μg), and liquid chromatography-mass spectrometry (LC-MS) was performed on samples following anti-P-Selectin immunoprecipitation. The MS2 spectra for each of the two detected NEDD9 peptide sequences, both within the substrate domain, are shown: K.[…].D (AA: 91-102; SEQ ID NO:9) (m z 677.36735 at retention time […]) (N9-P1) and K.[…].G (AA: 191-211; SEQ ID NO:10) (m/z 808.77731 at retention time […]) (N9-P2) (N=2 replicates for N=2 iterations). Underlining indicates a YxxP sequence. (B) HPAEC plasma membrane fractions were incubated with exogenous P-Selectin and co-immunoprecipitation for P-Selectin and NEDD9 was performed. PM, plasma membrane; UN, untreated. Varying concentrations of P-Selectin (ligand) (2 μM-0.5 nM) were co-incubated with NEDD9 (receptor) (20 nM) and microscale thermophoresis was performed to assess macromolecular interactions between these proteins. […]
(§2) Microscale Thermophoresis. […] In preliminary studies, we determined that Tris buffer containing 10% glycerol, 1% BSA, 0.05% Tween-20 and 5 mM DDT was an optimal buffer to minimize sample aggregation and adsorption in the capillary tube.³⁹ For experiments, NEDD9 (20 nM) was incubated with decreasing concentrations of P-Selectin (2 μM-0.5 nM) and MST scan was performed.

[2] = target: T1, recombinant human NEDD9 (neural …); assay: microscale thermophoresis; dye-labelled NEDD9 20 nM, P-Selectin titrated 2 µM-0.5 nM, N=2
Description: as §1, §2

[3] = target: T2, endogenous human NEDD9 of human pulmonary artery endothelial cells (lysates and plasma membrane fractions) (human, UniProt Q14511 1-834, limits assumed); assay: co-immunoprecipitation from HPAEC plasma membrane fractions incubated with recombinant P-Selectin for 1 hr
T2 construct: Endogenous protein in cell material; also called NEDD9 in HPAECs; NEDD9 p55 fragment
T2 sequence (looked up): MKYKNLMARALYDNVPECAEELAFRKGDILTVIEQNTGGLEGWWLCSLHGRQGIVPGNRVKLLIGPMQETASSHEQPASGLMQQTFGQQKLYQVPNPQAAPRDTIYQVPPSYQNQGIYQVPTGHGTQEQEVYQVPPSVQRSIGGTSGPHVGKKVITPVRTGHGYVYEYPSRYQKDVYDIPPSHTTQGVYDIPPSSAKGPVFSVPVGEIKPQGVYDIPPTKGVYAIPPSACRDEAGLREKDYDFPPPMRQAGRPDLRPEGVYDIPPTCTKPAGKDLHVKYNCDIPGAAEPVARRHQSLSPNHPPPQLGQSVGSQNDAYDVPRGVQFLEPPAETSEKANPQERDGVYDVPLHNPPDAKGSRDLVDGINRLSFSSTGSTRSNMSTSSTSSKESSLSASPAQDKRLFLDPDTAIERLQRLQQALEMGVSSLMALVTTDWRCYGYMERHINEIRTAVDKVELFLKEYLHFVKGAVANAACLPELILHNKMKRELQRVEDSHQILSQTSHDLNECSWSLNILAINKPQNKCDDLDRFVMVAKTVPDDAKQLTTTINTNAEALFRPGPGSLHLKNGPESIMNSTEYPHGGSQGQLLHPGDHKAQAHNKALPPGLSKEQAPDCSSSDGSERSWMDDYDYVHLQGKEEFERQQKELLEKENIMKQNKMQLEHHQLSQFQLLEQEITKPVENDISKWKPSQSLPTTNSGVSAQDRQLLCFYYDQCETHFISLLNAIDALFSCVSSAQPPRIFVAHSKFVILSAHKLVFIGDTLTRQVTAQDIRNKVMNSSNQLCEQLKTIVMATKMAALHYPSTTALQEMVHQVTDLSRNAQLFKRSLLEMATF
Description: Magnetic beads (Bio-Rad SureBeads) were resuspended in 100 μl solution (1 mg at 10 mg/mL), magnetized, and serially washed with 1 mL PBS+0.1% Tween 20 (PBS-T). Primary antibody (10 μg) (Table 2) was added to the resuspended beads in a final volume of 200 μl and rotated at room temperature for 10 min. The beads were then magnetized and serially washed with 1 mL PBS-T before incubation with the antigen-containing HPAEC plasma membrane lysate (250-500 μl) plus recombinant P-Selectin (R&D Systems) (0.5-1.0 μg) for 1 hr at room temperature. In the cell-free immunoprecipitation experiment, the antibody-labeled beads were incubated with recombinant NEDD9 (Origene)³⁹ (5 ng) and recombinant P-Selectin (5 ng) in the presence of IgG₁ control, msAb-N9-P1 (10-20 uM), or msAb-N9-P2 (10-20 μM) for 1 hr at room temperature. […]
Next, LC-MS was performed on in-gel trypsin-digested lysates, and identified only two NEDD9 peptide sequences, both within the substrate domain: K.[…].D (AA: 91-102; SEQ ID NO:9) (N9-P1) and K.[…].G (AA: 191-211; SEQ ID NO:10) (N9-P2) (N=2 replicates for N=2 iterations) (FIG. 4A). […] Plasma membrane fractions from HPAECs were incubated with V-control or exogenous (recombinant) P-Selectin for 1 hr, and P-Selectin-NEDD9 complex formation was assessed by co-immunoprecipitation.

EC50 (read off the curve) [1]: ~60 nM
Kd [2]: 13.9 nM
fold increase of NEDD9:P-Selectin complex formation against V-control [3]: 3 fold
B1: recombinant P-Selectin/CD62P, R&D Systems ADP3-200 (other, human, UniProt P16109 42-771, looked up)
chain: WTYHYSTKAYSWNISRKYCQNRYTDLVAIQNKNEIDYLNKVLPYYSSYYWIGIRKNNKTWTWVGTKKALTNEAENWADNEPNNKRNNEDCVEIYIKSPSAPGKWNDEHCLKKKHALCYTASCQDMSCSKQGECLETIGNYTCSCYPGFYGPECEYVRECGELELPQHVLMNCSHPLGNFSFNSQCSFHCTDGYQVNGPSKLECLASGIWTNKPPQCLAAQCPPLKIPERGNMTCLHSAKAFQHQSSCSFSCEEGFALVGPEVVQCTASGVWTAPAPVCKAVQCQHLEAPSEGTMDCVHPLTAFAYGSSCKFECQPGYRVRGLDMLRCIDSGHWSAPLPTCEAISCEPLESPVHGSMDCSPSLRAFQYDTNCSFRCAEGFMLRGADIVRCDNLGQWTAPAPVCQALQCQDLPVPNEARVNCSHPFGAFRYQSVCSFTCNEGLLLVGASVLQCLATGNWNSVPPECQAIPCTPLLSPQNGTMTCVQPLGSSSYKSTCQFICDEGYSLSGPERLDCTRSGRWTDSPPMCEAIKCPELFAPEQGSLDCSDTRGEFNVGSTCHFSCDNGFKLEGPNNVECTTSGRWSATPPTCKGIASLPTPGVQCPALTTPGQGTMYCRHHPGTFGFNTTCYFGCNAGFTLIGDSTLSCRPSGQWTAVTPACRAVKCSELHVNKPIAMNCSNLWGNFSYGSICSFHCLEGQLLNGSAQTACQENGHWSTTVPTCQAGPLTIQEA
notes: Bought recombinant protein; Species is read from 'Purified human NEDD9 and P-Selectin/CD62P'; also called exogenous P-Selectin
